Test [1] has as its target human LAG3 on cells (human) (UniProt P18627). Nature of the test: flow cytometry (MFI) on Jurkat-LAG3 cells, upper panel; EC50 table has no unit, x axis Concentration (nM); fit value of a flat control curve. (Flow cytometry measures light scatter and fluorescence of single cells or particles in a stream.)
For test [2] the target is unchanged. Nature of the test: flow cytometry (MFI) on activated CD4 T cells, lower panel; EC50 table has no unit, x axis Concentration (nM); fit value of a flat control curve.
In test [3] the target is human PD-L1 expressed on mammalian cells (human) (UniProt Q9NZQ7). The test can be described thus: cell-based binding on Raji-PDL1 cells (FACS by paragraph 328; the y axis of the sheet is labelled IL2 (ng/ml)); EC50 table has no unit, x axis Concentration (nM).
For test [4], the target named is human PD-L1-Fc protein (human) (UniProt Q9NZQ7). The test can be described thus: ELISA on coated human PD-L1-Fc; EC50 table has no unit, x axis Ab(nM); fit value of a flat control curve. (In general: An ELISA detects its analyte on a solid surface through an enzyme-linked reagent.)

pEC50: −log10 of the molar value.

One may read the pEC50 as the negative decadic logarithm of the EC50, by convention in mol/L. Read a low pEC50 as a high EC50.

Chain of human LAG3 on cells (human) (P18627 23-525): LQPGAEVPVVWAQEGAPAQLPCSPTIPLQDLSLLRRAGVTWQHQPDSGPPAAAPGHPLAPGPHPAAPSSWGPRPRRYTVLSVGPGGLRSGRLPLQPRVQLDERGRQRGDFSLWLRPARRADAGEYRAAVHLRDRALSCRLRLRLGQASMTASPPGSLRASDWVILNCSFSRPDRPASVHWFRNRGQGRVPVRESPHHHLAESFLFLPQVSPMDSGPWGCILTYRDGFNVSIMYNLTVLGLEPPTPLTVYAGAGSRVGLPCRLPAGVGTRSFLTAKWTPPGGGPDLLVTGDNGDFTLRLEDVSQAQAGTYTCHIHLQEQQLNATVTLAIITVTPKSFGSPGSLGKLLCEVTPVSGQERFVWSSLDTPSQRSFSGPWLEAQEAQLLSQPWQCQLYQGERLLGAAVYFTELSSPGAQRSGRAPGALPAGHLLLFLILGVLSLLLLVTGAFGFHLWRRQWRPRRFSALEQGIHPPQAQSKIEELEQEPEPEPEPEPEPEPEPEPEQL
Chain of human PD-L1 expressed on mammalian cells (human) (Q9NZQ7 19-290): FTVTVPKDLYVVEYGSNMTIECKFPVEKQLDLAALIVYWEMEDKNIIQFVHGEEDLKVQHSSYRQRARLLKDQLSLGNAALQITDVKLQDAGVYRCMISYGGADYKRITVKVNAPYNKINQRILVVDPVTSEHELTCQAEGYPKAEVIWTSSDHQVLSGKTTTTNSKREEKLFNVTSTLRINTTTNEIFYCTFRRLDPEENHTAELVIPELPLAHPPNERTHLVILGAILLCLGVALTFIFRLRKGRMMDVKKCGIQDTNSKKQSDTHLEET
Chain of human PD-L1-Fc protein (human) (Q9NZQ7 19-239 limits assumed): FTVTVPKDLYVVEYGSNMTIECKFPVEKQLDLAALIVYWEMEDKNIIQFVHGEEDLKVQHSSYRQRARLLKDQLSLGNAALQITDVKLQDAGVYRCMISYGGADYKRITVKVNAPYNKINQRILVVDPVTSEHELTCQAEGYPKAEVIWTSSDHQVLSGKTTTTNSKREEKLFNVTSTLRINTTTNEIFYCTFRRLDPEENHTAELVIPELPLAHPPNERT

On to IgG (antibody), for which the figures for the pEC50 in test [1] and in test [2] were 9.33 and 2.44, respectively.
Take Tecentriq (antibody): in test [3], the pEC50 is 9.05.
In test [4], hIgG (antibody) had a pEC50 of 7.07.

The values are drawn from US20220363763A1.
